Data as given in article PMC5841360 (2018).

B1: his6-cortactin, wild type (purified) [not stated] / GST-GluA2 C-terminal tail [not stated] (parent complex)
chain 1: not shown
chain 2: EFCYKSRAEAKRMKVAKNPQNINPSSSQNSQNFATYKEGYNVYGIESVKI

Variants of: B1
Assay: GST pulldown, Western blot quantification; Input is 0.2% of offered protein; n = 3-6; read off a plot

| percent of parent | Variant |
| --- | --- |
| ~76 | chain 2 K17A, chain 2 N18A |
| ~22 | chain 2 K11A |

Further lines, the variant ahead of its results:

| Variant | percent of parent |
| --- | --- |
| chain 2 R12A, chain 2 M13A | ~55 |
| chain 2 P19A, chain 2 Q20A | ~83 |
| chain 2 K14A, chain 2 V15A | ~37 |
